In data set [1] the target is SisLac, Phosphotriesterase-Like Lactonase from Sulfolobus islandicus strain M.16.4 (Sulfolobus islandicus strain M.16.4). Kind of data set: SEC-MALS; KW803 column (Shodex), room temperature (25°C), 0.5 ml/min, activity buffer (HEPES 50 mM, NaCl 150 mM, CoCl2 0.2 mM) with pH adjusted to 7.3; static and quasi-elastic light scattering, refractometry. (SEC sorts molecules by how far they enter the pores of the column.)

For data set [2] the target is unchanged. The data set can be described thus: dynamic light scattering; room temperature, 30 µL of purified protein at 2.5 mg/mL in activity buffer (HEPES 50 mM pH 8, NaCl 150 mM, CoCl2 0.2 mM), 633 nm.
Data set [3] concerns the molecule itself. The data set can be described thus: SEC-MALS; KW803 column (Shodex), room temperature (25°C), 0.5 ml/min, activity buffer (HEPES 50 mM, NaCl 150 mM, CoCl2 0.2 mM) with pH adjusted to 7.3; static and quasi-elastic light scattering, refractometry.

The text below walks through data of publication PMC3468530, “Structural and Enzymatic characterization of the lactonase SisLac from Sulfolobus islandicus” (PLoS ONE, 2012).

As a reminder, the stoichiometry N is a count of units in the complex or per binding partner.

In the case of “SisLac, Phosphotriesterase-Like Lactonase from Sulfolobus islandicus strain M.16.4 (enzyme)”, the stoichiometry N in data set [1] and in data set [2] was 2 each time.

B1: SsoPox, Phosphotriesterase-Like Lactonase from Sulfolobus solfataricus (enzyme)
chain: MRIPLVGKDSIESKDIGFTLIHEHLRVFSEAVRQQWPHLYNEDEEFRNAVNEVKRAMQFGVKTIVDPTVMGLGRDIRFMEKVVKATGINLVAGTGIYIYIDLPFYFLNRSIDEIADLFIHDIKEGIQGTLNKAGFVKIAADEPGITKDVEKVIRAAAIANKETKVPIITHSNAHNNTGLEQQRILTEEGVDPGKILIGHLGDTDNIDYIKKIADKGSFIGLDRYGLDLFLPVDKRNETTLRLIKDGYSDKIMISHDYCCTIDWGTAKPEYKPKLAPRWSITLIFEDTIPFLKRNGVNEEVIATIFKENPKKFFS
notes: SsoPox, Phosphotriesterase-Like Lactonase of Sulfolobus solfataricus (strain MT4, GenBank AAW47234.1); made from the plasmid pET22b-SsoPox; Plasmid pET22b-SsoPox (GeneArt); also called wt SsoPox; source: E. coli BL21(DE3)-pGro7/GroEL, purified (70°C heat step, ammonium sulfate precipitation, size exclusion chromatography)
On to B1, for which the “stoichiometry N” value in data set [3] amounted to 2.
